Biological target: the molecule itself
Assay: SEC; purified recombinant protein (100 uM) on an analytical Superdex 75 10/300 column, 0.5 ml/min, UV absorbance at 280 nm

B1: His-tagged WT mouse Thioesterase superfamily member 2 (Them2), purified recombinant (enzyme, UniProt Q9CQR4 1-140, looked up)
chain: MSSMTQNLREVMKVMFKVPGFDRVLEKVTLVSAAPEKLICEMKVEEQHTNKLGTLHGGLTATLVDSISTMALMCTERGAPGVSVDMNITYMSPAKIGEEIVITAHILKQGKTLAFASVDLTNKTTGKLIAQGRHTKHLGN
notes: also called WT Them2; acyl-CoA thioesterase 13
Question: B1 was tested. Which “stoichiometry N” value did it give?
Answer: 4

B2: His-tagged N50A/D65A mouse Them2, purified recombinant (enzyme, UniProt Q9CQR4 1-140, looked up)
chain: MSSMTQNLREVMKVMFKVPGFDRVLEKVTLVSAAPEKLICEMKVEEQHTAKLGTLHGGLTATLVASISTMALMCTERGAPGVSVDMNITYMSPAKIGEEIVITAHILKQGKTLAFASVDLTNKTTGKLIAQGRHTKHLGN
notes: also called N50A/D65A Them2
Question: Which “stoichiometry N” value does the source give for B2 here?
Answer: 4

Source: PMC11570472, “Activity and phosphatidylcholine transfer protein interactions of skeletal muscle thioesterase Them2 enable hepatic steatosis and insulin resistance” (The Journal of Biological Chemistry, 2024)
